Measurements published in patent US20230040065A1 (Janssen / Centocor, published 2023).

Tests used:
recombinant human TNFα [1] = biological target: T1, recombinant human TNFα (human, UniProt P01375 77-233, 125I label in the receptor binding assay); experiment: inhibition of 125I-TNFα (5 ng/ml) binding to plate-coated p55-sf2; hybridoma supernatant preincubated with 125I-TNFα, cpm bound counted
T1 construct: also called huTNFα; tumor necrosis factor alpha
Protocol: Varying amounts of hybridoma cell supernatants containing known amounts of TNV mAb were preincubated with a fixed concentration (5 ng/ml) of ¹²⁵I-labeled TNFα. […] The amount of TNFα that bound to the p55 receptor in the presence of the mAbs was determined after washing away the unbound material and counting using a gamma counter. Although eight TNV mAb samples were tested in these experiments, for simplicity three of the mAbs that were shown by DNA sequence analyses to be identical to one of the other TNV mAbs (see Section 5.2.2) are not shown here. Each sample was tested in duplicate. The results shown are representative of two independent experiments.
(§1) 50:1 of p55-sf2 at 0.5:g/ml in PBS was added to Optiplates to coat the wells during a one-hour incubation at 37° C. Serial dilutions of the eight TNV cell supernatants were prepared in 96-well round-bottom plates using PBS/0.1% BSA as diluent. […] The mixture was preincubated for one hour at RT. The coated Optiplates were washed to remove unbound p55-sf2 and 50:1 of the ¹²⁵I-TNFα/cell supernatant mixture was transferred to the Optiplates. After 2 hrs at RT, Optiplates were washed three times with PBS-Tween. […] of Microscint-20 was added and the cpm bound determined using the TopCount gamma counter.

recombinant human TNFα [2] = biological target: T1, recombinant human TNFα; experiment: inhibition of 125I-TNFα binding to plate-coated p55-sf2, hybridoma supernatants
Protocol: as §1
A simple binding assay was done to determine whether the eight TNV mAbs contained in hybridoma cell supernatant were capable of blocking TNFα binding to receptor. The concentrations of the TNV mAbs in their respective cell supernatants were first determined by standard ELISA analysis for human IgG.

recombinant human TNFα [3] = biological target: T1, recombinant human TNFα; experiment: cell-based or functional assay

T1 sequence (P01375 77-233 limits assumed): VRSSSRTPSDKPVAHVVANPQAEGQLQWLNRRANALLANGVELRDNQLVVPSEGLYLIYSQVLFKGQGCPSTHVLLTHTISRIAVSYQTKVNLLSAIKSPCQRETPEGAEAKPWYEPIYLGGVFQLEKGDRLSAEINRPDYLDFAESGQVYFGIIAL

B1: TNV148 (GenTNV148.26.12) (antibody, human IgG1, kappa, V domains shown)
VH: QVQLVESGGGVVQPGRSLRLSCAASGFIFSSYAMHWVRQAPGNGLEWVAFMSYDGSNKKYADSVKGRFTISRDNPKNTLYLQMNSLRAEDTAVYYCARDRGIAAGGNYYYYGMDVWGQGTTVTVSS
VL: EIVLTQSPATLSLSPGERATLSCRASQSVYSYLAWYQQKPGQAPRLLIYDASNRATGIPARFSGSGSGTDFTLTISSLEPEDFAVYYCQQRSNWPPFTFGPGTKVDIKR
notes: Hybridoma-derived fully human IgG1 kappa mAb (G1m(z)); also called C420A
- IC50 (read off the curve) (recombinant human TNFα [1]): ~4 ng/mL
- fold better at blocking TNF binding to p55-sf2, against TNV118 and TNV14 (recombinant human TNFα [2]): ~4 fold
- neutralizing TNFα bioactivity (in vitro) (recombinant human TNFα [3]): 4 fold (against TNV14)

B2: TNV86 (GenTNV86.14.34) (antibody, human IgG1, kappa, V domains shown)
VH: B1 VH
VL: B1 VL
notes: Hybridoma-derived fully human IgG1 kappa mAb; also called C417A
- fold better at blocking TNF binding to p55-sf2, against TNV118 and TNV14 (recombinant human TNFα [2]): ~4 fold
